The record followed here is article PMC9482650, “Quantitative fragmentomics allow affinity mapping of interactomes” (Nature Communications, 2022).

Experiment in all cases: holdup assay
Holding throughout (set-up): key: below the threshold = too weak to quantify, mostly under pKd 3.1 to 4
Common to all, as to conditions: plain residues with an end cap or a label only (N-terminal biotin on a linker: ado-ado)

The target of experiment [1] is T1, APBA1_1, Q02410.
T1 sequence (Q02410 651-752, limits assumed, looked up): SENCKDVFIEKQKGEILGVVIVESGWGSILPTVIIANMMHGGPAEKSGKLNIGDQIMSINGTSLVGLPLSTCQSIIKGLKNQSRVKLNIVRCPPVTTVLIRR

Experiment [2] concerns the target T2, CARD11, Q9BXL7.
T2 sequence (Q9BXL7 662-765, limits assumed, looked up): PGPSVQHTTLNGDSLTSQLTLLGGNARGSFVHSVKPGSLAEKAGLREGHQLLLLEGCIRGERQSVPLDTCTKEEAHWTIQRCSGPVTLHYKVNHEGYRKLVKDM

In experiment [3] the target is T3, DFNB31_1, Q9P202.
T3 sequence (Q9P202 135-233, limits assumed, looked up): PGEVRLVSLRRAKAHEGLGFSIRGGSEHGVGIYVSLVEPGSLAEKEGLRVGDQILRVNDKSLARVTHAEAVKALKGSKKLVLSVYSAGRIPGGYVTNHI

Experiment [4] concerns the target T4, DFNB31_2, Q9P202.
T4 sequence (Q9P202 274-371, limits assumed, looked up): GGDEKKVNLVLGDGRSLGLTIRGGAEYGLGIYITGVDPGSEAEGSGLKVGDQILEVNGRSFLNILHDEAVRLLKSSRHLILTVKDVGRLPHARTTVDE

In experiment [5] the target is T5, DFNB31_3, Q9P202.
T5 sequence (Q9P202 811-907, limits assumed, looked up): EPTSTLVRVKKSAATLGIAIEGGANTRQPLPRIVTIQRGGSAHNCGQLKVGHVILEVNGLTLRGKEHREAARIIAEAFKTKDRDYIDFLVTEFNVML

Experiment [6] addresses DLG1_2, Q12959.
Experiment [7] concerns the target T6, DVL3, Q92997.
T6 sequence (Q92997 244-331, limits assumed, looked up): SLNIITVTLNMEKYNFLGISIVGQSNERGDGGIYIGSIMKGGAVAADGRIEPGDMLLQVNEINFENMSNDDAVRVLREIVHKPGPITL

Experiment [8] has as its target T7, FRMPD1, Q5SYB0.
T7 sequence (Q5SYB0 52-145, limits assumed, looked up): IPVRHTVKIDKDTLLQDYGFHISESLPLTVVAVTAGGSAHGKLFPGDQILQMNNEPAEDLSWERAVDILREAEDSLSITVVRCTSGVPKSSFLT

Experiment [9] has as its target T8, GRIP1_5, Q9Y3R0.
T8 sequence (Q9Y3R0 568-668, limits assumed, looked up): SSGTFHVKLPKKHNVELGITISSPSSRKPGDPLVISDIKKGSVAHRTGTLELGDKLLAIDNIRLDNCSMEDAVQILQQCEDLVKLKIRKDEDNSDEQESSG

Experiment [10] concerns the target HTRA1, Q92743.
Experiment [11] concerns the target T9, HTRA4, P83105.
T9 sequence (P83105 378-476, limits assumed, looked up): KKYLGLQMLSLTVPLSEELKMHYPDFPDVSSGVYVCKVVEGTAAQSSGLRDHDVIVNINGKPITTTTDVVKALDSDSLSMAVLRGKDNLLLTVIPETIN

The target in experiment [12] is LIMK2, P53671.
The target of experiment [13] is T10, LIN7C, Q9NUP9.
T10 sequence (Q9NUP9 88-185, limits assumed, looked up): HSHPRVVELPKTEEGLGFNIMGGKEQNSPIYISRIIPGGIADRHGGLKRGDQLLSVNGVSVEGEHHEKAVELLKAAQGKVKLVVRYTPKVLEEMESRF

Experiment [14] deals with MAGI2_2, Q86UL8.
Experiment [15] has as its target MAGI2_3, Q86UL8.
Experiment [16] deals with NHERF4_4, Q86UT5.
The target in experiment [17] is PDZRN4_1, Q6ZMN7.
Experiment [18] deals with T11, RAPGEF6, Q8TEU7.
T11 sequence (Q8TEU7 525-625, limits assumed, looked up): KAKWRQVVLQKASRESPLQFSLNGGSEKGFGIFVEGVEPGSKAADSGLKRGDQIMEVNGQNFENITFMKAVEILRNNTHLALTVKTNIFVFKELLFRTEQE

In experiment [19] the target is T12, SHANK1, Q9Y566.
T12 sequence (Q9Y566 658-767, limits assumed, looked up): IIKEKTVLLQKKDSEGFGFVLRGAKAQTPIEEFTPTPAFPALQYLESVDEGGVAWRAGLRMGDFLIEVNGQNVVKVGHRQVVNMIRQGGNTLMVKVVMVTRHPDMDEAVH

Experiment [20] deals with T13, TIAM2, Q8IVF5.
T13 sequence (Q8IVF5 885-986, limits assumed, looked up): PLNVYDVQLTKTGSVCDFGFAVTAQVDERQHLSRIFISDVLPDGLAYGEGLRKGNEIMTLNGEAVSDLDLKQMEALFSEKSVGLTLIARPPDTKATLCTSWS

The target in experiment [21] is T14, TJP3_3, O95049.
T14 sequence (O95049 375-456, limits assumed, looked up): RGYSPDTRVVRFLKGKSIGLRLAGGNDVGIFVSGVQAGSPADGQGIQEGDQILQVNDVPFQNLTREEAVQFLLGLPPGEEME

Experiment [22] has as its target T15, TX1BP3, O14907.
T15 sequence (O14907 10-122, limits assumed, looked up): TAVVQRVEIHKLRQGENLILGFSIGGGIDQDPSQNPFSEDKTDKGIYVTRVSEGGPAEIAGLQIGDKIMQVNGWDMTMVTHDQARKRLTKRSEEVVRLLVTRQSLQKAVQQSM

Sequence of HTRA1, Q92743 (Q92743 360-477): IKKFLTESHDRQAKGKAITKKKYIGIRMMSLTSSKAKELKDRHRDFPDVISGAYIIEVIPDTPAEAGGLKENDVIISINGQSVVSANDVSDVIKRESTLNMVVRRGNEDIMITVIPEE
Sequence of PDZRN4_1, Q6ZMN7 (Q6ZMN7 213-318): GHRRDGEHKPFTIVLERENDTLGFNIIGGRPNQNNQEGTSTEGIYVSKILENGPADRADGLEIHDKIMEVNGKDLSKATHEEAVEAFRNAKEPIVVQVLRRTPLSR
Sequence of LIMK2, P53671 (P53671 143-248): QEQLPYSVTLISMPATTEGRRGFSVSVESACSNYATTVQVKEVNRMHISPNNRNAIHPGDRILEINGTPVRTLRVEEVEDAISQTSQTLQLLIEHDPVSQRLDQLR
Sequence of DLG1_2, Q12959 (Q12959 314-412): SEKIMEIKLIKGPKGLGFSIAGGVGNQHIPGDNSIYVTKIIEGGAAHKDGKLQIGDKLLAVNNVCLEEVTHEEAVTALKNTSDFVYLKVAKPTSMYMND
Sequence of MAGI2_3, Q86UL8 (Q86UL8 600-682): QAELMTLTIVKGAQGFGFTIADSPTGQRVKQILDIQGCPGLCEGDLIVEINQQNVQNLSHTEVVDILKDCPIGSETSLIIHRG
Sequence of MAGI2_2, Q86UL8 (Q86UL8 410-522): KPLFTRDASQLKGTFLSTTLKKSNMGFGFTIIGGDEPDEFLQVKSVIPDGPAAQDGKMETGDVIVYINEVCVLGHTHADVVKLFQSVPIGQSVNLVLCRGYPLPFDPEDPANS
Sequence of NHERF4_4, Q86UT5 (Q86UT5 464-550): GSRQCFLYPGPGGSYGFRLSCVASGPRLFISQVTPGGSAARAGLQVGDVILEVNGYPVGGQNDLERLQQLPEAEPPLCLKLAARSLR

PPGKHLVTEV [KCNA7, Q96RP8]: the negative-log Kd (pKd) result in [1] is “below the threshold”; in [2], “below the threshold”; in experiment [3], “below the threshold”; in [4] it was “below the threshold”; in experiment [5] it was 4.01; in experiment [6], 5.1. Further, the pKd entry was “below the threshold” in [7]; “below the threshold” in experiment [8]; “below the threshold” in [9]; 4.84 in experiment [10]; 4.61 in experiment [11]; “below the threshold” in experiment [12]. Besides, the pKd result in experiment [13] was “below the threshold”; in [14], 4.32; in experiment [15], 4.22; in [16], “below the threshold”; in experiment [17], “below the threshold”; in experiment [18] it was 3.52. The pKd in experiment [19] is 3.71; in [20], 4.01; in experiment [21], “below the threshold”; in experiment [22], 4.67.

As to TNSRHGETTV [FZD2, Q14332], the pKd result in [1] was “below the threshold”; in experiment [2], “below the threshold”; in [3], 3.78; in experiment [4], “below the threshold”; in experiment [5], “below the threshold”; in [6] it was 5.17. The pKd entry in [7] was “below the threshold”; in [8] it was “below the threshold”; in [9], “below the threshold”; in experiment [10], 4.41; in [11], “below the threshold”; in experiment [12], “below the threshold”. Besides, the pKd was 4.6 in experiment [13]; 4.59 in experiment [14]; 3.53 in experiment [15]; 3.92 in experiment [16]; 4.18 in [17]; “below the threshold” in [18]. Moreover, the pKd result was “below the threshold” in experiment [19], “below the threshold” in experiment [20], “below the threshold” in experiment [21] and 3.68 in [22].

Turning to ARESQKVSHV [FAM110B, Q8TC76], the pKd entry in experiment [1] was “below the threshold”; in experiment [2], “below the threshold”; in [3], 3.62; in experiment [4], 3.9; in [5] it was “below the threshold”; in experiment [6], 4.68. The pKd entry in [7] is “below the threshold”; in experiment [8] it was “below the threshold”; in experiment [9] it was “below the threshold”; in experiment [10], 4.32; in experiment [11], 4.1; in [12], “below the threshold”. Also, the negative logarithm of the Kd (pKd) entry was “below the threshold” in experiment [13]; 4.87 in experiment [14]; 4.25 in experiment [15]; “below the threshold” in experiment [16]; “below the threshold” in experiment [17]; “below the threshold” in experiment [18]. For the same molecule, the pKd result is “below the threshold” in experiment [19], “below the threshold” in experiment [20], “below the threshold” in experiment [21] and 4.9 in experiment [22].

Regarding SPDRDRESIV [SCN5A, Q14524], the negative logarithm of the Kd (pKd) entry in experiment [1] is “below the threshold”; in [2] it was “below the threshold”; in experiment [3] it was 3.58; in experiment [4], “below the threshold”; in [5], 4.06; in experiment [6] it was 4.86. Besides, the pKd entry in experiment [7] was “below the threshold”; in [8], “below the threshold”; in experiment [9] it was “below the threshold”; in [10], 4.51; in [11] it was 3.9; in experiment [12], “below the threshold”. In addition, the pKd in experiment [13] is 4.12; in experiment [14], 4.26; in experiment [15], 4.02; in experiment [16], 3.88; in experiment [17] it was 3.95; in experiment [18] it was “below the threshold”. The pKd entry in experiment [19] was “below the threshold”; in experiment [20], “below the threshold”; in experiment [21], “below the threshold”; in experiment [22], 4.5.

As to STKRKLASAV [NCF1, P14598], the pKd entry is “below the threshold” in experiment [1]; “below the threshold” in experiment [2]; “below the threshold” in experiment [3]; “below the threshold” in [4]; 3.85 in experiment [5]; 4.61 in [6]. The pKd result in experiment [7], in experiment [8], in experiment [9], in [10], in experiment [11] and in experiment [12] was “below the threshold” throughout. The pKd entry in [13] is “below the threshold”; in experiment [14], 5.44; in experiment [15], “below the threshold”; in experiment [16], “below the threshold”; in experiment [17] it was “below the threshold”; in [18] it was “below the threshold”. In addition, the pKd entry in experiment [19] was “below the threshold”; in experiment [20], 3.75; in [21] it was “below the threshold”; in experiment [22], 3.72.

In general, pKd refers to the Kd on a negative log10 scale, so that one unit is a factor of ten.
